According to patent US20170240628A1 (CELLMID, published 2017):
Positions count from the first letter of the chain named. Values belong to the binder of their own block, whether it stands above or below them.

Legend:
[1] = target: T1, recombinant murine midkine (muMK) (murine, UniProt P12025 23-140); assay: ELISA, plate coated with muMK
T1 construct: also called murine MK; Murine MK
T1 sequence (looked up): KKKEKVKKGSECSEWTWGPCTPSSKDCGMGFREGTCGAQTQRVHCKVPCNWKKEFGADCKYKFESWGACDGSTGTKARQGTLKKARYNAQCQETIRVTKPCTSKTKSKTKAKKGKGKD
Method: (§1) The binding specificity and affinity of the humanised anti-MK antibodies to recombinant human MK (huMK) and murine MK (muMK) was assessed by ELISA. ELISA plates (Nunc Immuno MaxiSorp 96 well flat-bottom were coated with 100 uL of 2 ug/mL of either huMK or muMK in 2% BSA/PBS (overnight at room temperature). After washing, blocking (1 h at 37° C.), and washing again, the humanised anti-MK and chimeric antibodies described in Example 1 were analysed for binding to huMK or muMK at concentrations ranging between 3 μg/ml and 0.00004 μg/ml in 2% BSA/PBS (1 h at 37° C.). After washing, the binding of antibody was detected with goat anti-mouse IgG (Fab specific)-HRP conjugate (Sigma, Cat. No. A9917) and SigmaFast OPD substrate (Sigma, Cat. No. P9187). The reaction was stopped with 3 M HCl, absorbance read at 490 nm on a Dynex Technologies MRX TC II plate reader and the binding curves plotted. Binding affinity data for the humanised anti-MK antibodies to huMK and muMK are presented in Table 6 and Table 7 respectively, and in FIG. 3.

[2] = target: T2, recombinant human midkine (huMK) (human, UniProt P21741 21-143); assay: ELISA, plate coated with huMK
T2 construct: also called human MK; Human MK
T2 sequence (looked up): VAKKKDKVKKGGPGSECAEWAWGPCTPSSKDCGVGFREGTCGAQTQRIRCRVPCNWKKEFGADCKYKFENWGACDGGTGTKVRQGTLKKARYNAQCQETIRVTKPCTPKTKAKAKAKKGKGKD
Method: as §1

B1: IP14-H2L6 (antibody, V domains shown)
VH: QVQLVQSGAEVKKPGASVKVSCKASGQSFSSYWMNWVRQAPGQGLEWIGMIHPSDSETILNQKFKDKATLTVDISTSTAYMELSSLRSEDTAVYYCSSWSAKRGDFWGQGTLVTVSS
VL: EIVLTQSPSTLSASVGDRVNITCRASESISNNLHWYQQKPHKAPKLLIYYASQSISGVPSRFSGSGSGTEFNLTISSVQPDDFATYYCQQSNSWPLTFGQGTKVEIKR
notes: also called Hv2 Lv6
EC50 [1]: 0.073 nM | EC50 [2]: 0.054 nM

B2: IP14 Hv0 Lv6 (antibody, V domains shown)
VH: QVQLQQPGAELVRPGHSVKLSCKASGQSFSSYWMNWVRQRPGQGLEWIGMIHPSDSETILNQKFKDKATLTVDISSNTAYMQLSSPTSEDSAVYFCSSWSAKRGDFWGQGTTLTVSS
VL: B1 VL
EC50 [2]: 0.132 nM

B3: IP14-H2L4 (antibody, V domains shown)
VH: B1 VH
VL: EIVLTQSPDFQSVTPKEKVNITCRASESISNNLHWYQQKPHQSPKLLIYYASQSISGVPSRFSGSGSGTDFNLTINSVEAEDAATYYCQQSNSWPLTFGGGTKLEIKR
notes: also called Hv2 Lv4
EC50 [1]: 0.078 nM | EC50 [2]: 0.053 nM

B6: IP14 Hv0 Lv4 (antibody, V domains shown)
VH: B2 VH
VL: B3 VL
EC50 [2]: 0.108 nM

B7: IP14-H5L2 (antibody, V domains shown)
VH: QVQLVQSGGGLVQPGGSLRLSCAASGQSFSSYWMNWVRQAPGQGLEWIGMIHPSDSETILNQKFKDKATLTVDISKNTAYLQMNSLRAEDTAVYYCSSWSAKRGDFWGQGTLVTVSS
VL: EIVLTQSPATLSLSPGERATLSCRASESISNNLHWYQQKPGQAPRLLIKYASQSISGIPARFSGSGPGTDFTLTISSVEPEDFAVYYCQQSNSWPLTFGGGTKLEIKR
notes: also called Hv5 Lv2
EC50 [1]: 0.054 nM | EC50 [2]: 0.069 nM

B8: IP14-H5L4 (antibody, V domains shown)
VH: B7 VH
VL: B3 VL
notes: also called Hv5 Lv4
EC50 [1]: 0.051 nM | EC50 [2]: 0.069 nM

B9: IP14-H5L6 (antibody, V domains shown)
VH: B7 VH
VL: B1 VL
notes: also called Hv5 Lv6
EC50 [1]: 0.044 nM | EC50 [2]: 0.073 nM

B10: IP14-H2L2 (antibody, V domains shown)
VH: B1 VH
VL: B7 VL
notes: also called Hv2 Lv2
EC50 [1]: 0.087 nM | EC50 [2]: 0.1 nM

B11: IP14 Hv0 Lv2 (antibody, V domains shown)
VH: B2 VH
VL: B7 VL
EC50 [2]: 0.095 nM

B12: IP14 Hv0 Lv7 (antibody, V domains shown)
VH: B2 VH
VL: B7 VL with E1D, T20N, G41H, K49Y, I58V, P67S, T72N, G100Q, L104V
EC50 [2]: 0.092 nM

B15: IP14 Hv0 Lv3 (antibody, V domains shown)
VH: B2 VH
VL: B7 VL with E1D, K49Y, V78L
EC50 [2]: 0.09 nM

B17: IP14-H6L6 (antibody, V domains shown)
VH: B7 VH with Q13K, G16H, Q43K, T71S, S75A, T78S
VL: B1 VL
notes: also called Hv6 Lv6
EC50 [1]: 0.048 nM | EC50 [2]: 0.088 nM

B18: IP14-H3L1 (antibody, V domains shown)
VH: B1 VH with I48M, A68V, L70M, V72R, I74T, A79V, S97A, S98R
VL: B7 VL with T20N, G41H, T72N
notes: also called Hv3 Lv1
EC50 [1]: 0.12 nM | EC50 [2]: 0.091 nM

B19: IP14-H2L1 (antibody, V domains shown)
VH: B1 VH
VL: B7 VL with T20N, G41H, T72N
notes: also called Hv2 Lv1
EC50 [1]: 0.09 nM | EC50 [2]: 0.093 nM

B21: IP14-H3L2 (antibody, V domains shown)
VH: B1 VH with I48M, A68V, L70M, V72R, I74T, A79V, S97A, S98R
VL: B7 VL
notes: also called Hv3 Lv2
EC50 [1]: 0.1 nM | EC50 [2]: 0.082 nM

B22: IP14 Hv0 Lv8 (antibody, V domains shown)
VH: B2 VH
VL: B7 VL with E1D, G41H, K49Y, I58V, P67S, G100Q, L104V
EC50 [2]: 0.08 nM

B23: IP14-H2L3 (antibody, V domains shown)
VH: B1 VH
VL: B7 VL with E1D, K49Y, V78L
notes: also called hIP14-H2L3; Hv2 Lv3
EC50 [1]: 0.081 nM | EC50 [2]: 0.068 nM

B25: IP14 Hv0 Lv1 (antibody, V domains shown)
VH: B2 VH
VL: B7 VL with T20N, G41H, T72N
EC50 [2]: 0.093 nM

B26: IP14-H5L3 (antibody, V domains shown)
VH: B7 VH
VL: B7 VL with E1D, K49Y, V78L
notes: also called hIP14-H5L3; Hv5 Lv3
EC50 [1]: 0.05 nM | EC50 [2]: 0.068 nM

B28: IP14-H6L4 (antibody, V domains shown)
VH: B7 VH with Q13K, G16H, Q43K, T71S, S75A, T78S
VL: B3 VL
notes: also called Hv6 Lv4
EC50 [1]: 0.051 nM | EC50 [2]: 0.073 nM

B31: IP14-H6L1 (antibody, V domains shown)
VH: B7 VH with Q13K, G16H, Q43K, T71S, S75A, T78S
VL: B7 VL with T20N, G41H, T72N
notes: also called Hv6 Lv1
EC50 [1]: 0.032 nM | EC50 [2]: 0.097 nM

Continued, values first:

EC50 [1]: 0.081 nM | EC50 [2]: 0.05 nM
B4: IP14-H1L4 (antibody, V domains shown)
VH: B1 VH with A16H, L86P
VL: B3 VL
notes: also called Hv1 Lv4

EC50 [1]: 0.087 nM | EC50 [2]: 0.053 nM
B5: IP14-H1L6 (antibody, V domains shown)
VH: B1 VH with A16H, L86P
VL: B1 VL
notes: also called Hv1 Lv6

EC50 [1]: 0.059 nM | EC50 [2]: 0.067 nM
B13: IP14-H5L7 (antibody, V domains shown)
VH: B7 VH
VL: B7 VL with E1D, T20N, G41H, K49Y, I58V, P67S, T72N, G100Q, L104V
notes: also called Hv5 Lv7

EC50 [1]: 0.089 nM | EC50 [2]: 0.05 nM
B14: IP14-H1L8 (antibody, V domains shown)
VH: B1 VH with A16H, L86P
VL: B7 VL with E1D, G41H, K49Y, I58V, P67S, G100Q, L104V
notes: also called hIP14-H1L8; Hv1 Lv8

EC50 [1]: 0.051 nM | EC50 [2]: 0.065 nM
B16: IP14-H1L2 (antibody, V domains shown)
VH: B1 VH with A16H, L86P
VL: B7 VL
notes: also called Hv1 Lv2

EC50 [1]: 0.072 nM | EC50 [2]: 0.041 nM
B20: IP14-H6L2 (antibody, V domains shown)
VH: B7 VH with Q13K, G16H, Q43K, T71S, S75A, T78S
VL: B7 VL
notes: also called hIP14-H6L2; Hv6 Lv2

EC50 [1]: 0.071 nM | EC50 [2]: 0.058 nM
B24: IP14-H2L7 (antibody, V domains shown)
VH: B1 VH
VL: B7 VL with E1D, T20N, G41H, K49Y, I58V, P67S, T72N, G100Q, L104V
notes: also called Hv2 Lv7

EC50 [1]: 0.089 nM | EC50 [2]: 0.063 nM
B27: IP14-H1L3 (antibody, V domains shown)
VH: B1 VH with A16H, L86P
VL: B7 VL with E1D, K49Y, V78L
notes: also called hIP14-H1L3; Hv1 Lv3

EC50 [1]: 0.081 nM | EC50 [2]: 0.043 nM
B29: IP14-H1L7 (antibody, V domains shown)
VH: B1 VH with A16H, L86P
VL: B7 VL with E1D, T20N, G41H, K49Y, I58V, P67S, T72N, G100Q, L104V
notes: also called Hv1 Lv7

EC50 [1]: 0.069 nM | EC50 [2]: 0.056 nM
B30: IP14-H2L8 (antibody, V domains shown)
VH: B1 VH
VL: B7 VL with E1D, G41H, K49Y, I58V, P67S, G100Q, L104V
notes: also called hIP14-H2L8; Hv2 Lv8

EC50 [1]: 0.044 nM | EC50 [2]: 0.056 nM
B32: IP14-H1L1 (antibody, V domains shown)
VH: B1 VH with A16H, L86P
VL: B7 VL with T20N, G41H, T72N
notes: also called Hv1 Lv1

EC50 [1]: 0.052 nM | EC50 [2]: 0.062 nM
B33: IP14-H5L1 (antibody, V domains shown)
VH: B7 VH
VL: B7 VL with T20N, G41H, T72N
notes: also called Hv5 Lv1
